Assay [1] deals with HLA-HHDII/DR1 mice. The experiment in a line: Ex vivo IFNγ ELISpot after peptide immunisation, HHDII/DR1 mice. Format: in vivo, mouse. On the procedure: (§1) C57BL/6 mice (Charles River, UK), HLA-DR4 mice (Model #4149, Taconic, USA), HLA-A2/DR1 (HHDII/DR1, Pasteur Institute), HLA-A2.1+/+HLA-DP4+/+hCD4+/+ (HLA-HHDII/DP4) transgenic mice (EM: 02221, European Mouse Mutant Archive) described in patent WO2013/017545 A1 (EMMA repository, France) were used, aged between 8 and 12 weeks. Peptides were dissolved in PBS to 1 mg/ml and then emulsified (a series of dilutions) with CpG ODN 1826 and MPLA 6 μg/mouse of each (Invivogen, UK). Peptides (25 μg/mouse) were injected subcutaneously at the base of the tail. Mice were immunised at days 1, 7 and 14 for peptide immunisation. Spleens were removed for analysis at day 21 unless stated otherwise.
(§2) ELISpot assays were performed using murine IFNγ, IL-17 and IL-10 capture and detection reagents according to the manufacturer's instructions (Mabtech, Sweden). In brief, anti-IFNγ, IL-17 and IL-10 specific antibodies were coated onto wells of 96-well Immobilin-P plate. Synthetic peptides (at various concentrations) and 5×10^5 per well splenocytes were added to wells of the plate in quadruplicate Tumour target cells were added where relevant at 5×10^4/well in triplicate and plates incubated for 40 hrs at 37° C. After incubation, captured IFNγ, IL-10 and IL-17 were detected by biotinylated anti-IFNγ, IL-10 and IL-17 antibodies and developed with a streptavidin alkaline phosphatase and chromogenic substrate. Lipopolysaccharide (LPS; 5 μg/ml) was used as a positive control. For MHC blocking studies, anti-CD4 blocking antibody (GK1.5) or anti-CD4 blocking antibody (RPA-T4) for HHDII/DP4 mice which express human CD4 and anti-CD8 blocking antibody (2.43) from Bioxcell were used at 20 μg/ml. Spots were analysed and counted using an automated plate reader (Cellular Technologies Ltd).
Screening was performed to identify potential homocitrullinated vimentin epitopes in mice. Mice were immunised with pools of homocitrullinated peptides. […] Each pool was administered as three immunisations containing 20 μg of each peptide and CpG/MPLA as an adjuvant on day 1, 8 and 15. On day 21 the mice were culled and the immune responses to each peptide within the immunising pool were assessed by ex vivo ELISpot. Given that different mouse strains have different MHC repertoires a number of strains were used for screening. Peptide responses were assessed in transgenic strains expressing human DR4 or HHDII/DR1 in a C57BL/6 background (see methods). […]
The five selected homocitrullinated Cyk8 peptides were also screened in HHDII/DR1 transgenic mice. […] Response to Cyk8 112Hcit peptide in the HHDII/DR1 mice was lost in the presence of CD8 blocking antibody but less effect of the CD4 blocking antibody was seen (FIG. 12b). […] Responses to homocitrullinated Cyk8 peptides show both CD4 and CD8 mediated responses.

Assay [2] deals with HLA-DR4 mice. Kind of assay: Ex vivo IFNγ ELISpot after peptide immunisation, HLA-DR4 mice. Format: in vivo, mouse. On the procedure:
as §1, §2
(§3) Screening was performed to identify potential homocitrullinated vimentin epitopes in mice. Mice were immunised with pools of homocitrullinated peptides. […] Each pool was administered as three immunisations containing 20 μg of each peptide and CpG/MPLA as an adjuvant on day 1, 8 and 15. On day 21 the mice were culled and the immune responses to each peptide within the immunising pool were assessed by ex vivo ELISpot. Given that different mouse strains have different MHC repertoires a number of strains were used for screening. Peptide responses were assessed in transgenic strains expressing human DR4 or HHDII/DR1 in a C57BL/6 background (see methods).

Assay [3] relates to HLA transgenic mice. The experiment in a line: T cell response to Hcit peptides in HLA transgenic mice (screening, ex vivo ELISpot). As to conditions: yes/no; Hcit peptide with CpG/MPLA. Set-up: species or system mouse. Here is the method: as §1, §2, §3
Screening was performed to identify potential homocitrullinated ALDOA epitopes in transgenic HHDII/DP4 and HHDII/DR1 mice. Mice were immunised with pools of human homocitrullinated peptides. […] Each pool was administered as three immunisations containing 20 μg of each peptide and CpG/MPLA as an adjuvant. After 21 days the mice were culled and the immune responses to each peptide within the immunising pool were assessed by ex vivo ELISpot in HHDII/DP4 (FIG. 4b) and HHDII/DR1 mice (FIG. 4d).
Using this combination of predictions, 5 CyK8 peptides containing homocitrulline were synthesised (Table 4). Screening was performed to identify potential homocitrullinated Cyk8 epitopes in transgenic HHDII/DP4. Mice were immunised with pools of human homocitrullinated peptides. […] Each pool was administered as three immunisations containing 20 μg of each peptide and CpG/MPLA as an adjuvant. After 21 days the mice were culled and the immune responses to each peptide within the immunising pool were assessed by ex vivo ELISpot in HHDII/DP4 (FIG. 10a).

The target of assay [4] is T1, HLA-DP4 (Homo sapiens, UniProt P04440+P20036).
T1 sequence (P20036 29-260): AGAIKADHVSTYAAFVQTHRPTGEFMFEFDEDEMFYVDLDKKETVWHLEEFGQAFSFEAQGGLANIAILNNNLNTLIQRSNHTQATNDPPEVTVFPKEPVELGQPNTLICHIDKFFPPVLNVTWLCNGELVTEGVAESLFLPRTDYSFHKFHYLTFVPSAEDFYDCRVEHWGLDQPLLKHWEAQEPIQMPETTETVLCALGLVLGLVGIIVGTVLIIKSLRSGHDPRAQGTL
T1 sequence (P04440 30-258): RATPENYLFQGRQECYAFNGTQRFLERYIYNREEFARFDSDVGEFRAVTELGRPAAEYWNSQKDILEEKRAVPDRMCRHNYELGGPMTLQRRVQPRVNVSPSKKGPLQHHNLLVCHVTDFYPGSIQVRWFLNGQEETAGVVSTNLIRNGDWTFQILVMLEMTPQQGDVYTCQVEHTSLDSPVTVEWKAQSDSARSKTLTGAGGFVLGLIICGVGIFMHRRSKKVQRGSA
The experiment in a line: DP4 competition assay with biotinylated Hep B peptide. As to conditions: inhibition of biotinylated Hep B binding to HLA-DP4; 5 fold excess test peptide, equal amount for unlabelled Hep B. On the procedure: 2×T175 gave 2.5×10^7 B16 HHDII/DP4 (B16F1 β2M H2Ab1 dKO A35 HHDII/DP4 H7/2E9/F9 p14) cells. This was enough for 5 preps using the following protocol with Mem-PER™ Plus Membrane Protein Extraction Kit (thermo-scientific cat #89842).
5×10^6 cells were resuspended in the growth media by scraping the cells off the surface of the plate with a cell scraper and then centrifuged at 300 g for 5 mins. The cell pellet was washed with 3 ml of Cell Wash Solution and centrifuged at 300 g for 5 mins. The supernatant was removed and discarded. The cells were resuspended in 1.5 ml of Cell Wash Solution and transfer to a 2 ml centrifuge tube and centrifuged at 300 g for 5 mins. The supernatant was discarded. 0.75 ml of permeabilization buffer was added to the cell pellet and vortexed briefly to obtain a homogeneous cell suspension and incubated for 10 mins at 4° C. with constant mixing. The permeabilized cells were centrifuge for 15 mins at 16,000g before carefully removing the supernatant containing cytosolic proteins and transfering to a new tube. 0.5 ml of solubilization buffer was added to the pellet and resuspend prior to incubating at 4° C. for 30 minutes with constant mixing prior to centrifugation at 16,000g for 15 mins at 4° C. The supernatant containing solubilized membrane and membrane-associated proteins was transfered to a new tube. Aliquots were frozen at −80° C. for future use. 12.5 μl Halt™ Protease and Phosphatase Inhibitor Cocktail, EDTA-free (100X) thermo-scientific (Catalog number 78445) was added prior to freezing.
High binding plates were coated with streptavidin (Sigma S4762 at 1 mg/ml) 1/500 in PBS and incubated overnight at 4° C. The plates were blocked with 1% BSA in PBS for 4 hrs at room temp and washed 3×PBS/0.5% Tweenx. 450 μl of cell prep lysate (B16F1 B16 HHDII/DP4 H7/2E9/F9) was mixed with 50 μg test peptide (see below) or 10 μg of unlabelled Hep B peptide for 30 mins. 10 μg biotinylated Hep B peptide was added & incubated for 4 hrs at 37° C.:
Lysate/peptide mix was added to the plates at 100 μl/well and incubated for 4 hrs at room temperature. Plates were washed 3× with PBS/0.5% Tween. 100 μl per well of Leinco anti-Human HLA-DP4 clone B7/21 #H260 1 mg/ml at 1/500 dilution in 1% BSA/PBS was added and incubated for 1 hr at room temperature prior to washing 3× PBS/0.5% Tween. Goat anti-mouse lgG3-HRP at 0.5 mg/ml 1/500 100 μl per well (Invitrogen #M32607) diluted in 1% BSA/PBS) was added for 1 hr at room temperature prior to washing and adding 150 μl of TMB substrate to each well. The reaction was stopped with 50 μl of 2N H2SO4 and plates read plate at 450 nm.
To ensure that the biotinylation of Hep B had not interfered with its binding, HLA-DP4 was incubated with equal amounts of biotinylated and unlabelled Hep B peptide. Unlabelled peptide competed equally reducing binding by 47% (FIG. 53b).
The biotinylated HepB peptide was then incubated with a 5 fold excess of the unlabelled homocitrulline peptides. All peptides inhibited the binding of biotinylated Hep B to HLA-DP4 but to varying levels (FIG. 53c-e).

In assay [5] the target is HLA-DP4 (human). The experiment in a line: DP4 competition ELISA; competitor biotinylated Hep B peptide; 5 fold excess of unlabelled peptide. Background: ELISA stands for enzyme-linked immunosorbent assay.
For assay [6], the system named is B16F1 HHDII/DR1 tumours. Kind of assay: Tumour therapy, B16F1 HHDII/DR1 tumour in HHDII/DR1 mice. Format: in vivo, mouse. The conditions noted are these: peptide with CpG/MPLA days 4, 11, 18. An excerpt:
To determine if the epitopes that stimulate T cell responses are presented on MHC-II within the tumour environment, our homocitrullinated peptides were checked for tumour therapy in B16 tumour models. Mice were implanted with tumour cells on day 1 and then immunised with peptides and CpG/MPLA on days 4, 11 and 18.
HHDII/DR1 (FIG. 19a) or DR4 (FIG. 19b) transgenic mice were challenged with B16F1 HHDII/DR1 or B16F1 DR4 tumours respectively prior to immunisation with vimentin 116-135Hcit peptide and tumour growth and survival were monitored.
HHDII/DR1 mice were implanted with B16HHDII/DR1 tumour cells on day 1 and then immunised with Cyk8 371Hcit, 112hcit or both peptides and CpG/MPLA on days 4, 11 and 18.

[7] abbreviates: 3 immunisations with CpG/MPLA, day 21.

Where no end group is shown, it is not given here. [ ]: non-standard residue; d: D form. hCit = NC(=O)NCCCC[C@H](N)C(=O)O

With “KVRFLEQQN-Hcit-LLAE [Vimentin 120-134 Hcit]”, the “cross reactivity of vimentin 116-135 Hcit response to shorter Hcit peptide” value in assay [1] and in assay [2] was “Cross reactivity was seen” each time. What is called % inhibition is the share of the control response that was lost under treatment. Lower therefore signals little suppression. Consider “LSDHHVYLEGTLL-hcit-PNMVT (LSDHHVYLEGTLL[hCit]PNMVT) [Aldolase A 217-235 Hcit]”, for which the T cell response result in assay [3] was “no”. Also, the “% inhibition” value in assay [4] worked out at 84%. Take “LPLVDTHS-Hcit-RTLL-Hcit-TVETRDGQV [Vimentin 431-454 Hcit]”: in assay [3], the T cell response result is on record as “no”. Regarding “QIDVDVS-Hcit-PDLTAALRDVRQQ [Vimentin 255-275 Hcit]”, in assay [3], the T cell response entry is recorded as “no”.

Aldolase A 140-157 WT (peptide): the % inhibition in assay [5] amounted to 29%. Aldolase A 74-93 WT (peptide) came in with a % inhibition in assay [5] of 27%.

In turn, Vimentin 116-135 WT (peptide) yielded a % inhibition in assay [5] of 48%. For “EAEEWY-Hcit-S-Hcit-FADLSEAAN [Vimentin 286-303 Hcit]”, the T cell response result in assay [3] was “no”. Turning to Aldolase A 238-256 Hcit (peptide), the % inhibition in assay [5] is 73%. On to “hcit-CPLL-hcit-PWALTFSYGRALQ ([hCit]CPLL[hCit]PWALTFSYGRALQ) [Aldolase A 289-307 Hcit]”, for which the T cell response entry in assay [3] was “no”. For the same molecule, the “% inhibition” value in assay [4] was determined as 45%. On to “NYIDKVRFLEQQNKILLAEL [Vim 116-135 WT, unmodified wild type vimentin 116-135 peptide, reference compound]”, for which the “IFNγ ELISpot response” value in assay [1] (setting [7]) and in assay [2] (setting [7]) was “failed to induce any responses” throughout. The “% inhibition” value in assay [4] was 48%. Also, the “anti-tumour response / survival vs control” value in assay [6] is given as “did not show a significant anti-tumour response”. KFASFID[hCit]VRFLEQQN[hCit]MLE [Cytokeratin 8 101-120 Hcit] displayed a % inhibition in assay [5] of 71%. [hCit]CPLL[hCit]PWALTFSYGRALQ [Aldolase A 289-307 Hcit] came in with a % inhibition in assay [5] of 45%.

[hCit]DGADFA[hCit]WRCVL[hCit]IGEH [Aldolase A 140-157 Hcit]: the % inhibition in assay [5] was found to be 76%.

LEQQN[hCit]MLET[hCit]WSLLQQQ[hCit]T [Cytokeratin 8 112-131 Hcit]: the % inhibition in assay [5] came to 64%.

As to [hCit]LALDIEIATYR[hCit]LLEGEE [Cytokeratin 8 381-399 Hcit], the % inhibition in assay [5] worked out at 60%. Consider NYID[hCit]VRFLEQQN[hCit]ILLAEL [Vimentin 116-135 Hcit], for which the % inhibition in assay [5] was 44%. Same read-out and setting: with LSDHHVYLEGTLL[hCit]PNMVT [Aldolase A 217-235 Hcit] the figure was 84%.

In assay [5], IGGVILFHETLYQ[hCit]ADDGRP [Aldolase A 74-93 Hcit] yielded a % inhibition of 69%.

(Values after patent US12458688B2, “Epitopes” (Scancell Limited, priority 2018, dated 2025).)
